Consider 1 molecule from patent publication EP4737480A1 (Japan Science and Technology Agency, dated 2026).

The target of this experiment is recombinant HER2 molecule (UniProt P04626 23-652). Put plainly: BLI (Octet N1), HER2 on streptavidin biosensor.

B1: trastuzumab light chain P95ΔP96Δ (other)
light: DIQMTQSPSSLSASVGDRVTITCRASQDVNTAVAWYQQKPGKAPKLLIYSASFLYSGVPSRFSGSRSGTDFTLTISSLQPEDFATYYCQQHYTTTFGQGTKVEIKRTVAAPSVFIFPPSDEQLKSGTASVVCLLNNFYPREAKVQWKVDNALQSGNSQESVTEQDSKDSTYSLSSTLTLSKADYEKHKVYACEVTHQGLSSPVTKSFNRGEC
notes: also called Tmb-L-PPΔ; Tmb-L-PΔΔ
B1: the Kd was 123 nM, the koff worked out at 0.00258 s⁻¹ and the kon was found to be 20900 M⁻¹ s⁻¹.

As a reminder, the Kd is a measure of binding affinity in units of concentration. Usually koff stands for the first-order rate constant of dissociation. As usually defined, the kon is the rate constant with which the complex forms.
